Measured values published in patent publication US20150274802A1 (INDIANA UNIVERSITY RESEARCH AND TECHNOLOGY, published 2015).
Ends that are not written are not given here.

B1: IGF1 (Y^B16L^B17) (ligand)
chain 1: GIVDECCFRSCDLRRLEMYCA
chain 2: GPETLCGAELVDALYLVCGDRGFYFNKPT
notes: also called IGF analog IGF1 (Y^B16L^B17)
B2: #57: Gly^B2-PEG20K-Gly^B2 #11 dimer (ligand)
chain: GPEHLCGAHLVDALYLVCGDRGFYGYGSSSRRAPQTGIVDECCHRSCDLRRLENYCN
modifications: not fully specified (N-terminus); ends and bridges not checked; also: dimer: N-terminal amines of two chains joined by bifunctional 20K PEG linker

Key:
human insulin receptor [1] = target: T1, human insulin receptor (human, UniProt P06213 28-1382); assay: competition SPA, [125I]insulin
T1 construct: whole, on cells; receptor-transfected HEK293 cells in the phosphorylation assay

human insulin receptor [2] = target: T1, human insulin receptor; assay: cell-based or functional assay
human IGF-1 receptor [3] = target: T2, human IGF-1 receptor (human, UniProt P08069 31-1367); assay: cell-based or functional assay
human IGF-1 receptor [4] = target: T2, human IGF-1 receptor; assay: cell-based or functional assay; remark: listed apart in the source

Row | Binder | IC50 (human insulin receptor [1]) | potency in vitro against monomer #39 (human insulin receptor [2]) | Phosphorylation (EC50), % IGF-1 R (human IGF-1 receptor [3]) | % Insulin Activity (in vitro, assay not named) (human IGF-1 receptor [4])
1 | B1 | 510 pM | – | – | –
2 | B2 | – | ~5 fold | 2.6% | 2.6%
